According to the RNAGym collection of RNA variant scans (doi:10.1073/pnas.2313332121):
This sample holds only a part of the variants without activity.

B1: TPR 5TU (parent)
chain: GGAUCUUCUCGAUCUAACAAAAAAGACAAAUCUGCCACAAAGCUUGAGAGCAUCUUCGGAUGCAGAGGCGGCAGCCUUCGGUGGCGCGAUAGCGCCAACGUUCUCAACUAUGACACGCAAAACGCGUGCUCCGUUGAAUGGAGUUUAUCAUG

Variants of: B1
Assay: polymerase ribozyme fitness, log enrichment relative to wild type (log ratio); higher = more active; in vitro selection for triplet polymerase activity
In short: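 PCR was used to build mutant libraries for each subunit of a heterodimeric triplet polymerase ribozyme, which were then transcribed. A single in vitro selection round, in triplicate, used a frozen incubation at −7 °C and recovered extended constructs by gel excision, streptavidin beads and RT-PCR. Fitness is the logarithm of genotype enrichment relative to wild-type enrichment, averaged over replicates with inverse-variance weights. The logarithm is base 2, and after Illumina sequencing only genotypes with ≥10 input reads and ≥1 read per output were kept.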

Variant | polymerase ribozyme fitness (log ratio)
C27U U56A | -1.67
A29G C95A A119C G141C | ≤ -4.2
A28G A66C C79U G92U U148C | -3.86
A30G A60C A110G A113U A150G | ≤ -4.2
C27G C76U G83A C85G A107U A119U G141A | ≤ -4.2
A29U C95A U134C G140C | ≤ -4.2
A29U A142C | -4.15
A28U G59A | ≤ -4.2
A28U U33G A89G A91G C95A A98C | ≤ -4.2
A30U G94A G141A | ≤ -4.2
A28G C76A A107G G141U U148C | ≤ -4.2
A29U A47C C54A G94A U102G A110G C132A | ≤ -4.2
A28U G92C A113U | ≤ -4.2
C27G G58U C76A G86A U90C A106U C125U G136C | ≤ -4.2
C27U C131U | 0.137
A30U G46A U55A G74A U145A | ≤ -4.2
A28C A40C G48U G50C C95U G117C A119U C123U | ≤ -4.2
C27G U55A A60G C125U | ≤ -4.2
A29U G112C A121G G136U A137G U145A | ≤ -4.2
A30G A91U | -4.18
A30U A89U C93U A120G C125G G141A G143A A147C | ≤ -4.2
A29C U55A | -3.74
A28U G59C C93U A138G | ≤ -4.2
A29G C93U A107G U148G | ≤ -4.2

Variant | polymerase ribozyme fitness (log ratio)
C27U U101G G136A | -1.57
A28U G42C G83C A121U | ≤ -4.2
A30G G71C U78A C95G A115C | ≤ -4.2
A29G A49G C51U G70A A107U | ≤ -4.2
A30C C75G G81U C87U A120U | -4.16
C27U G84A G88A | -4.04
A30U G50C G71C A107G | ≤ -4.2
A30C U56A C57G C87U U102G G143C | ≤ -4.2
C27U U44A C54U U56A A60U U82A C85U A97C C105G A110C C118A | ≤ -4.2
C27U U55G U61A C87G | ≤ -4.2
C27U A29C U44A U55A C95G G117U | ≤ -4.2
A28U A47G C96A G141A | ≤ -4.2
A28C C54A G100A | ≤ -4.2
A28G C54G C76U G94A | -4
C27G C96U | -3.97
A28G U145C | ≤ -4.2
A28U U45A U78G G81C C116G G136U | ≤ -4.2
A29U C57A U61A A121U | ≤ -4.2
A30C G42U C54U C63G G68A C93U A121G G140A | ≤ -4.2
A28C C87A C108G U146C | ≤ -4.2
A28U C54G C69U C79U A91U U134G | ≤ -4.2
A28U C32G G133C | ≤ -4.2
A28U G48C C85A A97U A122G G143A U146C | ≤ -4.2
A28U A41U G67C C93U | ≤ -4.2

Variant | polymerase ribozyme fitness (log ratio)
A30G C57U | -2.81
A29U C38U A64U G88A A97U C116U | ≤ -4.2
A29U G59A C79G G80U G84U G124U | ≤ -4.2
C27G C85U A91U U109A C118A U127C | ≤ -4.2
A29U A30G C51U A89G C149A | ≤ -4.2
C27U A30U U55A G65U U102C A110G U111G C131A U134A | ≤ -4.2
A28C G67U U144C U151C | ≤ -4.2
A29G A98G | ≤ -4.2
C27U A47U C96A C103A G117A | ≤ -4.2
A28U A41C C54A A60C C96A C105U A106U | ≤ -4.2
A29G G68C C96U U102G U135G C149A | ≤ -4.2
A30C U55A C57G C93U C105G G124U | ≤ -4.2
A30G A37U G50A G83C | ≤ -4.2
A28U A52C | -3.54
A29G G86U U102G U134G G140U C149A | ≤ -4.2
C27G U44G A89C A142U | ≤ -4.2
A30C C51U G58U G80A | ≤ -4.2
A28G C36U C87A A119U G133A | ≤ -4.2
A29U A97G A121G G140C | ≤ -4.2
A29C C43G U53A G62U A147C | ≤ -4.2
A29C A52C C76U C96A U135G A147C | -4.08
A29U A40G U53A C95G | ≤ -4.2
C27U C54G C87U G92A C118A U144G | -3.12
A29U A40C U56A G88A A121U G126A G136A | -3.9

Variant | polymerase ribozyme fitness (log ratio)
C27G U61A A66G C76A C85A G141A | ≤ -4.2
A30G A64C A66U C99U U102A G117A U145G | ≤ -4.2
C27U C95A A138G | ≤ -4.2
C27G U44G G58C G71C C93G G94A U101A U102A | ≤ -4.2
A29U G59C A64G C96G U104C U109G | ≤ -4.2
A30G A60C G67U G68U G84U G117A U139A | ≤ -4.2
A29C C63A C87U U101C A115C G117C G133A | ≤ -4.2
A28U G50A U77C C85A C96G C105G G141A U144C | ≤ -4.2
C27U G46A C54U C85G | -3.63
A30U G80A G81U C85U U104A C105G | ≤ -4.2
A28U U56A A97G | ≤ -4.2
A30U G83A C95A U135G | ≤ -4.2
A30C C79U A119U C129G U134G A150G | -4.04
A30G A37C G94C | ≤ -4.2
A30C A73U C85G C93G C96G C149U | ≤ -4.2
A29G U78C | ≤ -4.2
A28C G124C | ≤ -4.2
A28C U31A A91G U104C | ≤ -4.2
A29G A52C G74A G92U C95G | ≤ -4.2
C27U A37G U104G | -4.08
A28U C96A A121U U148C | ≤ -4.2
A30C U31A U44A U55A C57G C76G | ≤ -4.2
C27U A47G U77A C85U U146C | ≤ -4.2
A29C C69G C103G U151G | ≤ -4.2

Variant | polymerase ribozyme fitness (log ratio)
A28U C116G | -3.74
A28U G86A | -4.08
A28G U61G C75A C93U U104G U135A | ≤ -4.2
A28G U33A A40U C87U G92A U127A G152U | -3.85
A30G A52C A60C C125U | ≤ -4.2
A29C U31G C95A A119G A142C G152U | ≤ -4.2
A29U C76G U82G G88C | ≤ -4.2
C27G U78A G83U A91U G94C U135G G136C | -4.03
A28U A37C | -3.93
A28G G86U | -3.52
A28U C35U C87G C103U A121G A122G | ≤ -4.2
A28C C38A G46A A66C G71U U127G | ≤ -4.2
A28C G81C G92U C103G | ≤ -4.2
A30G A47U U53A C76G C96U C118A | ≤ -4.2
C27U U31C A52G U134C | -0.377
A29C G68A G92C G133A | ≤ -4.2
A28U C93G | ≤ -4.2
C27U A30C C87G G128A C131A U134C G141U | -4.13
C27G G143C A150G | ≤ -4.2
A29G G94U C114U G128A | ≤ -4.2
A30C G71U A98G C103G | ≤ -4.2
A30G C38U G48A A66C G80U G84A C105G U109A C125A | ≤ -4.2
A28U C57G | -3.84
A29U G68A G81A | ≤ -4.2

Variant | polymerase ribozyme fitness (log ratio)
C27U U53A | -2.76
A29U G62C G70A A137U A138C | ≤ -4.2
C27U C32U A40U A49C C54U C87U A89U A98U | ≤ -4.2
A29U A40C G62U G70A G84A C96A U139C | ≤ -4.2
C27U U101C | -0.938
A28U G48C C75U U90G G117A C129G | ≤ -4.2
A29C G94C A97G A98G U104G | ≤ -4.2
A29G U53A | -3.63
A29U C32U G34C C72U C95A G140C | ≤ -4.2
A30G C32G C85G U90C C93G U111G A113U | ≤ -4.2
C27U U45A G81A G124U | ≤ -4.2
A30G C38U C54G C72G C75G C96G A147U | ≤ -4.2
A30G A49G U56A A66U C79U C85U G128A | ≤ -4.2
A30C C36A A52G C108A G152A | ≤ -4.2
A29C C87U G94U A107C U127G G140A | ≤ -4.2
A29U A39G U55A G92A | ≤ -4.2
A29C C96A U102G G124U | ≤ -4.2
A29U U77A C95G | ≤ -4.2
A29U G50U G59A C87A | ≤ -4.2
A29U C32G C75U U77G G80A | ≤ -4.2
A29C C54U G84A A97U | ≤ -4.2
A28U C99G | -3.72
A30G C149G | ≤ -4.2
A30U A39C A49C U104C C125G | ≤ -4.2

Variant | polymerase ribozyme fitness (log ratio)
A28C C87A A107C | ≤ -4.2
A29C C79G C96U U104C | ≤ -4.2
A29G C57G G136U | ≤ -4.2
A29U G46C G83C C108U | ≤ -4.2
A28U G84A C125U G126A G152U | ≤ -4.2
C27U G50U C95U C114U C118G A138U | ≤ -4.2
A28U C69A C75U U139G | ≤ -4.2
A30U U33C C36G U56A C85U C114G | -3.84
A28G U53A U144G | ≤ -4.2
A30U C32U G50U C51U U82C A106U A119C | ≤ -4.2
A28U A41G G42C G94C | ≤ -4.2
A30U G86A C96U A107U A142U C149G | ≤ -4.2
A29C G88C G92U | ≤ -4.2
C27G G46A A64C U77G G88U A121U | ≤ -4.2
C27G U33A U55A C87A A98C U104G U148A | ≤ -4.2
C27U A52G U53A C118G | -2.63
A29U A52G C76G G84A C116G C118A A137G G141A C149U G152C | ≤ -4.2
A29C C76A A91U A110G | ≤ -4.2
C27G U53A U55A A91G C103G A137U | ≤ -4.2
A28U G70C A91G G133C | ≤ -4.2
A28G G46A U55G C57A A73U C96A | ≤ -4.2
A29C C35A U53A C57U G92A C118U A122G G136A C149U | ≤ -4.2
A28U G50C | ≤ -4.2
